From patent publication US20250236670A1 (WISTAR INSTITUTE OF ANATOMY AND BIOLOGY, published 2025) come the findings set out here.

The target in assay [1] is T1, recombinant human Siglec-7 protein (human, UniProt Q9Y286 19-353, limits assumed).
T1 construct: Used in ELISA, Western blot and SPR
The assay can be described thus: SPR, 'Binding of DB7.2 to Siglec-7' [panel B].

Assay [2] deals with T2, human Siglec-7 on cells (HEK293T-Siglec7 cells; human NK cells and other PBMC populations) (human, UniProt Q9Y286 19-467). Nature of the assay: cell-based or functional assay.
T2 sequence (Q9Y286 19-467): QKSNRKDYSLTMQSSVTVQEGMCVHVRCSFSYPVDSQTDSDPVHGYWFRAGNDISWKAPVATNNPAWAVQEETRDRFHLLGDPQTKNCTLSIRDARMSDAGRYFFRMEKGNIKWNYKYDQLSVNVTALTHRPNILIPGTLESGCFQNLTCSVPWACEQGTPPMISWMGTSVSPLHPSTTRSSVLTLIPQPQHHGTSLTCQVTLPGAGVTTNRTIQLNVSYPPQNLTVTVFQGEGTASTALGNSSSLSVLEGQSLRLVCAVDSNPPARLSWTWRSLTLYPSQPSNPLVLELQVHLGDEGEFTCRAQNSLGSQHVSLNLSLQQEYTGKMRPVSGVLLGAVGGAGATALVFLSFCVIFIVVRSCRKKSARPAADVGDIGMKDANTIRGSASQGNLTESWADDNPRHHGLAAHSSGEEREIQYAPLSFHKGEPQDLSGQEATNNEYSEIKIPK
Assay [3] addresses T1, recombinant human Siglec-7 protein. Nature of the assay: SPR, titration of anti-Siglec-7 on recombinant human Siglec-7 protein (FIG. 16B). For orientation: In SPR one partner is held on a chip, and binding of the other changes the refractive index at the surface.
The target of assay [4] is T2, human Siglec-7 on cells …. The assay can be described thus: flow cytometry on HEK293T-Siglec-7 cells, GFP against Siglec-7 staining [panel B]. The text has this: For the non-conjugated primary antibodies, PE-secondary anti-human (H+L) (Invitrogen) and PE/AF647-secondary anti-human F(ab′)₂ (Jackson ImmunoResearch Laboratories Inc) were used. Live/Dead Violet viability kit (Invitrogen) was used to exclude dead cells from analysis. For Fluorescence cytometry staining on PBMCs, the following antibodies were used: CD69 PE-Cy5 (clone FN50), PD-1 BV421 (clone EH12.2H7), CCR7 APC-Cy7 (G043H7), CD19 BV785 (clone HIB19), CD27 BV650 (clone 0323), CD56 BV570 (clone HCD56), CD16 BV711 (clone 3G8), CD21 PE-Cy7 (clone BU32) and Siglec-7 (clone 6-434) from Biolegend; CD11c BUV395 (clone B-ly6), CXCR5 BV750 (clone RF8B2), CD3 BUV805 (UCHT1), CD45 AF700 (clone HI30), CD127 PE-CF594 (clone HIL-7RM21), CD25 BUV737 (clone 2A3), CD8 BUV496 (clone RPA-T8), HLA-DR BV605 (clone G46-6), CD38 BUV661 (clone HIT2), CD14 BV480 (clone MP9), CD45RA BUV563 (HI100), CD4 BB790 (clone SK3), CD15 FITC (clone HI98), CD103 BB700 (clone Ber-ACT8), CD161 APC (clone DX12) from BD Biosciences. […] Cells were washed with PBS and incubated with 0, 1 or 10 ug/ml of DB7.2 Siglec-7 antibody diluted in fluorescence-activated cell sorting (FACS) buffer for 20 minutes. […]
On the technique in general: A flow cytometer gives signals particle by particle.

Assay [5] concerns the target T1, recombinant human Siglec-7 protein. Nature of the assay: ELISA on recombinant human Siglec-7, dilution series (axis 'Dilutions', no concentration unit) [panel A].

T1 sequence (Q9Y286 19-353 limits assumed): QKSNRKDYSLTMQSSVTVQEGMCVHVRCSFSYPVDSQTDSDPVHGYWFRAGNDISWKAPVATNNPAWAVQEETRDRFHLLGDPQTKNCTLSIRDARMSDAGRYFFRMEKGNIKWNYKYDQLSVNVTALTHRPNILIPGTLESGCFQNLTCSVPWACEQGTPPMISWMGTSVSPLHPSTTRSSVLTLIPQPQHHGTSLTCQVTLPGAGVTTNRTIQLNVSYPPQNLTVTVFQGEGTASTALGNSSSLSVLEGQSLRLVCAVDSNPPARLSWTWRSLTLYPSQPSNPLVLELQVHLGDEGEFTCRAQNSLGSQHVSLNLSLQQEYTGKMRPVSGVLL

B1: DB7.2 (DB-S7-2) Siglec-7 MAb (antibody, human IgG1, V domains shown)
VH: QVQLVESGGGVVQPGRSLRLSCAASGFTFRTDAMHWVRQAPGKGLEWVAVIWYDGSIKYHADSVKGRFTISRDNSKNTLYLEMNSLRAEDTAVYYCARDRSNSLDHWGQGILVSVSS
VL: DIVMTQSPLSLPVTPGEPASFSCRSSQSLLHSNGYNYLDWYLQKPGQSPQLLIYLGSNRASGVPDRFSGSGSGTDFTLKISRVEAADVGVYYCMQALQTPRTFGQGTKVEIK
notes: Expressed as human IgG1; The VH is the same as that of DB-S7-1 and DB-S7-7; also called DB7.2 Siglec-7 DMAb; DB7.2 anti-Siglec-7 antibody
For the molecule B1, in assay [1], the koff (commonly a measure of how fast the partners let go of each other) came to 3.6e-05 s⁻¹, the kon (usually the rate constant with which the complex forms) came out at 830000 M⁻¹ s⁻¹ and the t1/2 was found to be 5.33 h. In addition, in assay [2], the “EC50, killing of PEO4 cells in the presence of human PBMCs (xCELLigence)” value amounted to 68.9 nM and the “IC50, killing of OVISE cells in the presence of human PBMCs (xCELLigence, cell index vs dose at 72 h)” value stood at 82.7 nM. In addition, the Kd (in general, a measure of binding affinity in units of concentration) in assay [3] amounted to 0.044 nM.

B2: DB7.1 (DB-S7-1) Siglec-7 MAb (antibody, human IgG1, V domains shown)
VH: B1 VH
VL: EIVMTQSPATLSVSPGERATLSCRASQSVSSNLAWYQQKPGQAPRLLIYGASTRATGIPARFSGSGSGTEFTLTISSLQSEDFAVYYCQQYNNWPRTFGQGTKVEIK
notes: Expressed as human IgG1 (HC + LC plasmids in pVax1, Expi293F cells)
As to B2, the binding result in assay [4] and in assay [5] was “binds” each time.

B3: DB7.2_TM Mod (antibody, human IgG1, V domains shown)
VH: B1 VH
VL: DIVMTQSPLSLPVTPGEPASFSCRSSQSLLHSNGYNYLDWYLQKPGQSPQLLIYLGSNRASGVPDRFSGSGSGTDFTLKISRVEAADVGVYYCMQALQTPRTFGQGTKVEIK
On to B3, for which the “IC50, killing of OVISE cells in the presence of human PBMCs (xCELLigence, cell index vs dose at 72 h)” value in assay [2] was 192 nM.

B4: DB7.7 (DB-S7-7) Siglec-7 MAb (antibody, human IgG1, V domains shown)
VH: B1 VH
VL: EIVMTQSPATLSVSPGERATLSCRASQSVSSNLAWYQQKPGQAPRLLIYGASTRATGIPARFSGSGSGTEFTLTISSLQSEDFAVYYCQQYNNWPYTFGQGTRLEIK
notes: Expressed as human IgG1
On to B4, for which the binding result in assay [4] and in assay [5] was “binds” each time.
